Key:
[1] = Specific activity on DMP; format: biochemical; conditions: 25 mM MES buffer, pH 5.5
Procedure: Specific activities of the purified Thielavia laccase were determined towards different laccase substrates.

[2] = Denim bleaching at different pH-values (Launder Ometer); conditions: 50° C.; for Increase of L* / L* after laccase treatment / b* after laccase treatment: 200 nkat/g, 30 min
Procedure: Lee Cooper jeans (Hamilton, 111-1060-55522-65, MASI Company Oy, Finland, former name M.A.S.I. jeans Oy) that were made of ring spun yarn in warp and open-end yarn in weft and were previously desized and treated with neutral ECOSTONE® cellulase were used as a test material. Laccase treatments were performed in LP-2 Launder Ometer as follows. About 10 g of denim swatches (15×14 cm) were loaded into 1.2 liter containers containing 200 ml Mc Ilvaine's citrate phosphate buffer pH 5, 6 or 7 and the containers were temperated. Enzyme with or without the mediator (methyl syringate, DeniLite II Assist, Novozymes) was added. Enzyme was dosed 200 nkat/g and the mediator 10 mg/g on the weight of fabric. […] The Launder Ometer was run at 50° C. for 30 min and after that the temperature in Launder was raised to 80° C. for 10 min. The swatches were rinsed carefully with warm water, dried half-dry in a tumbler and after that air dried.
The bleaching effect was evaluated by measuring the colour as reflectance values with the Minolta Spectrophotometer CM 1000 (Minolta Co.) using L*a*b* color space coordinates (illuminant D65/2°). The colour from both sides of the swatches was measured before and after the laccase treatment. Each measurement was the average of several, at least ten, measurements.

[3] = Denim bleaching, effect of enzyme dosage (Wascator); conditions: 60° C., pH 6
Procedure: Lee Cooper Jeans previously washed with ECOSTONE® cellulases (Example 7) were treated with a TaLcc1 laccase product from Trichoderma strain RF5598 and DeniLite Base from Novozymes using different laccase dosages. The laccase treatments were performed with Electrolux's Wascator FOM 71 CLS washer extractor under optimal conditions for each enzyme, shown in Table 13. Methyl syringate (Example 7) was used as a mediator. Laccase was inactivated after draining by raising the pH above 11 by NaOH (10 min, 60° C.) and rinsing 3 times. The fabrics were dried in a tumbler.
The bleaching effect was evaluated by measuring the colour after laccase treatment as reflectance values (as in Example 7) and comparing the values to previously measured values after cellulase treatment.

[4] = 20 nkat/g, mediator 1 mg/g, 30 min
[5] = 20 nkat/g, mediator 1 mg/g, 60 min
[6] = 100 nkat/g, mediator 5 mg/g, 30 min
[7] = 100 nkat/g, mediator 5 mg/g, 60 min

B1: TaLcc1: Recombinant Thielavia arenaria ALKO4197 laccase 1 (SEQ ID NO: 12) produced in Trichoderma reesei strains RF5597/RF5598 (protein)
chain: MKSWAAAVALMVGILSPHAAAAPPANPVQRDMLQVLEARQSGPTCNTPSNRACWTNGFDINTDYEVSTPNTGRTVAYQLTLTEKENWIGPDGVLKNVVMLVNDKIIGPTIRANWGDNIEVTVINNLKTNGTSMHWHGLRQLGNVFNDGANGVTECPIPPKGGRKTYKFRATQYGTSWYHSHFSAQYGNGVVGTIQIDGPASLPYDIDLGVFPLMDYYYRSADELVHFTQSNGAPPSDNVLFNGTARHPETGAGQWYNVTLTPGKRHRLRIINTSTDNHFQVSLVGHNMTVIATDMVPVNAFTVSSLFLAVGQRYDVTIDANSPVGNYWFNVTFGDGLCGSSNNKFPAAIFRYQGAPATLPTDQGLPVPNHMCLDNLNLTPVVTRSAPVNNFVKRPSNTLGVTLDIGGTPLFVWKVNGSAINVDWGKPILDYVMSGNTSYPVSDNIVQVDAVDQWTYWLIENDPTNPIVSLPHPMHLHGHDFLVLGRSPDELPSAGVRHIFDPAKDLPRLKGNNPVRRDVTMLPAGGWLLLAFKTDNPGAWLFHCHIAWHVSGGLSVDFLERPNDLRTQLNSNAKRADRDDFNRVCREWNAYWPTNPFPKIDSGLRHRFVEESEWMVR
modifications: Thielavia arenaria ALKO4197; (1)..(617) Deduced amino acid sequence of Thielavia arenaria ALKO4197 laccase 1 (Ta Lcc1)
Specific activity on DMP [1]: 285 nkat/mg | Increase of L* ([2]; mediator 0 mg/g, pH 5): 0.14 | L* after laccase treatment ([2]; mediator 0 mg/g, pH 5): 28.22 | b* after laccase treatment ([2]; mediator 0 mg/g, pH 5): −18.35 | Increase of L* ([2]; mediator 0 mg/g, pH 6): 0.82 | L* after laccase treatment ([2]; mediator 0 mg/g, pH 6): 29.58 | b* after laccase treatment ([2]; mediator 0 mg/g, pH 6): −18.38 | Increase of L* ([2]; mediator 0 mg/g, pH 7): 0.37 | L* after laccase treatment ([2]; mediator 0 mg/g, pH 7): 27.80 | b* after laccase treatment ([2]; mediator 0 mg/g, pH 7): −18.50 | Increase of L* ([2]; mediator 10 mg/g, pH 5): 13.52 | L* after laccase treatment ([2]; mediator 10 mg/g, pH 5): 42.04 | b* after laccase treatment ([2]; mediator 10 mg/g, pH 5): −14.78 | Increase of L* ([2]; mediator 10 mg/g, pH 6): 21.19 | L* after laccase treatment ([2]; mediator 10 mg/g, pH 6): 48.97 | b* after laccase treatment ([2]; mediator 10 mg/g, pH 6): −12.36 | Increase of L* ([2]; mediator 10 mg/g, pH 7): 16.92 | L* after laccase treatment ([2]; mediator 10 mg/g, pH 7): 44.71 | b* after laccase treatment ([2]; mediator 10 mg/g, pH 7): −14.43 | optimum pH in denim bleaching ([2]; pH 5 to 7 tested): 6 | Increase of L* [3, 4]: 12.24 | L* after laccase treatment [3, 4]: 40.61 | b* after laccase treatment [3, 4]: −16.16 | Increase of L* [3, 5]: 15.09 | L* after laccase treatment [3, 5]: 42.72 | b* after laccase treatment [3, 5]: −15.61 | Increase of L* [3, 6]: 21.88 | L* after laccase treatment [3, 6]: 49.84 | b* after laccase treatment [3, 6]: −13.75 | Increase of L* [3, 7]: 25.68 | L* after laccase treatment [3, 7]: 53.46 | b* after laccase treatment [3, 7]: −11.64
